{"source": "paper PMC8278588", "about": "“Biodegradation of flonicamid by Ensifer adhaerens CGMCC 6315 and enzymatic characterization of the nitrile hydratases involved” (Microbial Cell Factories, 2021)", "test_system": "N#CCNC(=O)c1cnccc1C(F)(F)F", "test": "purified protein", "details": "37 °C, 10 min, pH of kinetics not stated, hydration to TFNG-AM", "data": [{"substance": "CnhA (Ensifer adhaerens)", "values": [{"measurement": "Km", "value": 5.07, "unit": "mM"}, {"measurement": "Vmax", "value": 9.55, "unit": "µmol/min/mg"}]}, {"substance": "PnhA (Ensifer adhaerens)", "values": [{"measurement": "Km", "value": 2.96, "unit": "mM"}, {"measurement": "Vmax", "value": 88.7, "unit": "µmol/min/mg"}]}]}
